Where a chain is given by its changes, count along the chain named. One block for each binder: values may come before it.
Key:
FLAG-SLC3A2 N381D = target: T1, FLAG-SLC3A2 N381D (human, UniProt P08195-1 66-630, N381D, N-glycosylated; N-glycosylation site N381 deleted); experiment: affinity purification with mass spectrometry; anti-FLAG M2 agarose, 4 h at 4 °C, 1 mg lysate (0.5% NP40, 50 mM HEPES pH 8.0, 100 mM KCl, 1 mM EDTA, 10% glycerol) of HeLa Flp-In T-REx SLC3A2 KO cells with dox-induced FLAG-SLC3A2 WTseq or site variants; on-bead trypsin digest, DDA and SWATH; control: dox-treated SLC3A2 KO cells; in some samples 10 μM fluvastatin or 250 ng/ml swainsonine for the final 24 h; details: partners not purified
T1 construct: SLC3A2 (4F2hc, CD98), human, cDNA encoding amino acids 66 to 630 of isoform P08195-1, with N381D; also called N381D site variant; source: HeLa Flp-In T-REx SLC3A2 KO cells, dox-induced from the Flp-In site; in lysate (AP-MS) or on the cell surface, then lysed (Gal3 co-IP); not shown: FLAG, N-terminal, kept
T1 sequence (looked up): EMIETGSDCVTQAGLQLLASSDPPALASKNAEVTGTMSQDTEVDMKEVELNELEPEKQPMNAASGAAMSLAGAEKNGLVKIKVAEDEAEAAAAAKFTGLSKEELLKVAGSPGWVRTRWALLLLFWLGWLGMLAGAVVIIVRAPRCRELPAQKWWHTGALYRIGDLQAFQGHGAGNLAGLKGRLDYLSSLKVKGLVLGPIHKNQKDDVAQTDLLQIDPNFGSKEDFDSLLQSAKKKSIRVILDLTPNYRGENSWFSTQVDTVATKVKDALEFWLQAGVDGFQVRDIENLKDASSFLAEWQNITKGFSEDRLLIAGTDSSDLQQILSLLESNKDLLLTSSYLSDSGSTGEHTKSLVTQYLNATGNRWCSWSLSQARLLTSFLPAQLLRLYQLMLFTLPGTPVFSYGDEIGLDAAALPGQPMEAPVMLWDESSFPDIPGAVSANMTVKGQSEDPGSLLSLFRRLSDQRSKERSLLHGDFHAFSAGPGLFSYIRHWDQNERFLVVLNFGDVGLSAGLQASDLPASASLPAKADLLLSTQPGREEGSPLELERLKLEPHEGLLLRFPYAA

FLAG-SLC3A2 N365D = target: T2, FLAG-SLC3A2 N365D (human, UniProt P08195-1 66-630, N365D, N-glycosylated; N-glycosylation site N365 deleted); experiment: as above; details: partners not purified
T2 construct: SLC3A2 (4F2hc, CD98), human, cDNA encoding amino acids 66 to 630 of isoform P08195-1, with N365D; also called N365D site variant; source: HeLa Flp-In T-REx SLC3A2 KO cells, dox-induced from the Flp-In site; in lysate (AP-MS) or on the cell surface, then lysed (Gal3 co-IP); not shown: FLAG, N-terminal, kept
T2 sequence (looked up): T1 sequence (looked up) with N300D, D316N

percent decrease of the interaction against WTseq (FLAG-SLC3A2 N381D): 44 ± 14%
percent decrease of the interaction against WTseq (FLAG-SLC3A2 N365D): 44 ± 14%
B1: SLC7A5 (natural protein)
chain: not shown
notes: SLC7A5, human, endogenous in HeLa cells, found by its tryptic peptides; Forms a disulfide-linked heterodimer with SLC3A2; also called SLC7A5 exchanger; source: endogenous, HeLa lysate

percent decrease of the interaction against WTseq (FLAG-SLC3A2 N381D): 67 ± 15%
percent decrease of the interaction against WTseq (FLAG-SLC3A2 N365D): 67 ± 15%
B2: SLC7A11 (natural protein, human (endogenous in HeLa), UniProt Q9UPY5 1-501, looked up)
chain: MVRKPVVSTISKGGYLQGNVNGRLPSLGNKEPPGQEKVQLKRKVTLLRGVSIIIGTIIGAGIFISPKGVLQNTGSVGMSLTIWTVCGVLSLFGALSYAELGTTIKKSGGHYTYILEVFGPLPAFVRVWVELLIIRPAATAVISLAFGRYILEPFFIQCEIPELAIKLITAVGITVVMVLNSMSVSWSARIQIFLTFCKLTAILIIIVPGVMQLIKGQTQNFKDAFSGRDSSITRLPLAFYYGMYAYAGWFYLNFVTEEVENPEKTIPLAICISMAIVTIGYVLTNVAYFTTINAEELLLSNAVAVTFSERLLGNFSLAVPIFVALSCFGSMNGGVFAVSRLFYVASREGHLPEILSMIHVRKHTPLPAVIVLHPLTMIMLFSGDLDSLLNFLSFARWLFIGLAVAGLIYLRYKCPDMHRPFKVPLFIPALFSFTCLFMVALSLYSDPFSTGIGFVITLTGVPAYYLFIIWDKKPRWFRIMSEKITRTLQIILEVVPEEDKL
notes: SLC7A11, human, endogenous in HeLa cells, found by its tryptic peptides; Forms a disulfide-linked heterodimer with SLC3A2; source: endogenous, HeLa lysate

Source: publication PMC10698284, “SLC3A2 N-glycosylation and Golgi remodeling regulate SLC7A amino acid exchangers and stress mitigation” (The Journal of Biological Chemistry, 2023)
